B1: Gibberellin receptor GID1 (Oryza sativa subsp. japonica (Rice)), Q6L545 (parent)
chain: MAGSDEVNRNECKTVVPLHTWVLISNFKLSYNILRRADGTFERDLGEYLDRRVPANARPLEGVSSFDHIIDQSVGLEVRIYRAAAEGDAEEGAAAVTRPILEFLTDAPAAEPFPVIIFFHGGSFVHSSASSTIYDSLCRRFVKLSKGVVVSVNYRRAPEHRYPCAYDDGWTALKWVMSQPFMRSGGDAQARVFLSGDSSGGNIAHHVAVRAADEGVKVCGNILLNAMFGGTERTESERRLDGKYFVTLQDRDWYWKAYLPEDADRDHPACNPFGPNGRRLGGLPFAKSLIIVSGLDLTCDRQLAYADALREDGHHVKVVQCENATVGFYLLPNTVHYHEVMEEISDFLNANLYY
partner: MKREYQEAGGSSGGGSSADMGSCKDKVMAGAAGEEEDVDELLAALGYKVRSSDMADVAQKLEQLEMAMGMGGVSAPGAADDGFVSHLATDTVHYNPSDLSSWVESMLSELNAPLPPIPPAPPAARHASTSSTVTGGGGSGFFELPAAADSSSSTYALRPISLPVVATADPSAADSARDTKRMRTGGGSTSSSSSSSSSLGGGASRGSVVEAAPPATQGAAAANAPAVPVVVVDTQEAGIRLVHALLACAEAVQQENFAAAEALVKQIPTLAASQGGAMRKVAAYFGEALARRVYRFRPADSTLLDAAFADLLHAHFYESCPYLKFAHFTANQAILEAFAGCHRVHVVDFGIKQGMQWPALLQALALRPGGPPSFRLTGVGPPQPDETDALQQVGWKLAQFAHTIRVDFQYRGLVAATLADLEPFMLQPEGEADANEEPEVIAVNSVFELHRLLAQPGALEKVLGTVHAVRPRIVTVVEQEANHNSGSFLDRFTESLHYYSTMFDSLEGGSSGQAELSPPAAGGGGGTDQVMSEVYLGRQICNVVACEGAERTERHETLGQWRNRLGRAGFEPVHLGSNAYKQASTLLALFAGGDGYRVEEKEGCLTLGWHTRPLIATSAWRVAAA

Variants of: B1
Details: with slr1_orysj SLR1, Q7G7J6

Q: For L18A;W21A;L29A;I33A;L45A;Y48A, which “effect of a mutation on the interaction” value is on record?
A: The value was “disrupting interaction”.

Reference: IntAct's records for PubMed 19037316
